Source: PMC12503259, “Establishment of an in vivo analytical method for detecting total anti-UFH activity and pharmacokinetic study in PS and R15 in rats” (PLOS One, 2025)

How the values were obtained:
[1] = Stability in rat plasma after three freeze-thaw cycles; format: in vitro ADME; conditions: for RE%: plasma sample, freeze-thaw three cycles in -20℃, n=6; for Measured concentration after storage, Mean ± SD / RE (%) versus nominal concentration: rat plasma, three freeze (−80°C)-thaw (25°C) cycles; for Measured concentration after storage, Mean ± SD: n = 6
Protocol: (§1) Processing of Plasma Samples: 100 μL of the unknown plasma sample was added to 500 μL of 75% methanol (methanol: water = 75:25, v/v) and vortex-mixed for 5 seconds. The mixture was then centrifuged at 12,000 r/min for 10 minutes at 25°C. The supernatant (500 μL) was collected and dried under nitrogen at 60°C. Subsequently, UFH (0.14 U·mL^-1 for PS and 0.15 U·mL^-1 for R15; 120 μL) was added, and the mixture was vigorously shaken at room temperature for 10 minutes. The residual UFH content was measured using the Heparin Anti-FXa assay kit.
(§2) The detailed procedure is as follows: Accurately pipette 40 μL of the sample into a 96-well plate. Place the plate in a microplate shaker. Using a multichannel pipette, add 40 μL of reagent R1 and mix by shaking. Incubate at 37 °C for exactly 3 minutes (start timing upon addition of R1; at 50 seconds, begin shaking with the microplate shaker for 1 minute, then place the plate in the incubator). Remove the 96-well plate from the incubator and place it on the open microplate shaker. Using a multichannel pipette, add 40 μL of reagent R2 to each well and incubate at 37 °C for 6 minutes (after adding R2, at 3 minutes and 50 seconds, open the microplate shaker and shake for 4 minutes, then return the plate to the incubator). Remove the 96-well plate from the incubator and place it on the open microplate shaker. Quickly add 40 μL of reagent R3 using a multichannel pipette and shake until 9 minutes and 10 seconds. At 9 minutes and 30 seconds, add 80 μL of 20% acetic acid to each well to terminate the reaction. Measure the absorbance at 405 nm using a microplate reader (Multiskan FC, Thermo Fisher US).
Two concentration levels (low and high QC) were evaluated for validation of storage stability and freeze/thaw stability. Two concentration levels of PS and R15 (low and high QC) in blank rat plasma were prepared (n = 6), respectively. Samples in rats’ plasma were determined after storage at room temperature (25°C ± 1°C) for 30 min. […] Stock solution of PS and R15 were stored at 4°C for a week. All the samples mentioned above were processed by calibration curves with adequate QC samples diluted from newly prepared stock solution of PS and R15, followed by procedure of sample determination (see “Sample Preparation”), respectively.

[2] = Pharmacokinetic study in Wistar rats, total anti-heparin activity in plasma (fixed UFH added, residual UFH by anti-FXa kit); format: in vivo
Protocol: as §1, §2
Eight Wistar rats (approximately 250 g; equally divided by sex and acclimatized for 1 week in the animal facility) were used for profiling pharmacokinetics of PS. Each rat was cannulated in carotid artery to collect blood the day before the experiment. PS was injected through the tail vein and blood samples were collected at 0 min, 1 min, 3 min, 5 min, 7 min, 9 min, 11 min, 15 min, 20 min, 30 min, 60 min and 120 min in a tube containing 4% sodium citrate. Plasma was achieved by centrifugation at 8000 r/min for 10 min, and stored in the refrigerator at −80°C. […]
During the analysis of actual samples, a standard curve and a series of calibration standards were established for each analytical batch to determine the concentration of PS and R15 in plasma. The concentrations were plotted on the X-axis, and the data were fitted using Equation (3).
Weighted least squares regression was used for the calculations. The Optical Density (OD) values of the unknown biological samples were substituted into the equation to determine the concentration of PS and R15, respectively.
Pharmacokinetic parameters of PS were calculated by WinNonlin 6.4, and all data were processed by Microsoft Excel 2013 and GraphPad Prism 8.3.

[3] = PS 300 U/kg iv, rat 1# (male), single animal
[4] = PS 300 U/kg iv, rat 2# (male), single animal
[5] = PS 300 U/kg iv, rat 3# (male), single animal, not included in mean
[6] = PS 300 U/kg iv, rat 6# (male), single animal
[7] = PS 300 U/kg iv, rat 11# (female), single animal
[8] = PS 300 U/kg iv, rat 12# (female), single animal
[9] = PS 300 U/kg iv, rat 13# (female), single animal
[10] = PS 300 U/kg iv, rat 14# (female), single animal, not included in mean
[11] = PS 300 U·kg^-1 single iv tail vein, Wistar rats, Total (male and female), mean ± SD, n = 6, rats 3# and 14# excluded
[12] = PS 300 U·kg^-1 single iv tail vein, Wistar rats, female, mean ± SD, rat 14# excluded
[13] = PS 300 U·kg^-1 single iv tail vein, Wistar rats, male, mean ± SD, rat 3# excluded

Question: What does the source list for Protamine sulfate [PS]?
Answer: RE% ([1]; nominal 0.70 μg/mL): 10.71%; RE% ([1]; nominal 1.50 μg/mL): 5.78%; Measured concentration after storage, Mean ± SD ([1]; nominal 0.7 μg·mL^-1, anti-FXa read-out at 405 nm): 0.78 ± 0.02 µg/mL; RE (%) versus nominal concentration ([1]; nominal 0.7 μg·mL^-1, n = 6): 10.71%; Measured concentration after storage, Mean ± SD ([1]; nominal 1.5 μg·mL^-1, anti-FXa read-out at 405 nm): 1.59 ± 0.04 µg/mL; RE (%) versus nominal concentration ([1]; nominal 1.5 μg·mL^-1, n = 6): 5.78%; plasma concentration ([2]; PS 300 U/kg iv, 1 min, Mean±SD): 12190 ± 1890 ng/mL; plasma concentration ([2]; PS 300 U/kg iv, 3 min, Mean±SD): 3410 ± 1620 ng/mL; plasma concentration ([2]; PS 300 U/kg iv, 5 min, Mean±SD): 1760 ± 440 ng/mL; plasma concentration ([2]; PS 300 U/kg iv, 7 min, Mean±SD): 910 ± 290 ng/mL; plasma concentration ([2]; PS 300 U/kg iv, 9 min, Mean±SD): 820 ± 260 ng/mL; plasma concentration ([2]; PS 300 U/kg iv, 11 min, Mean±SD): 670 ± 210 ng/mL; plasma concentration ([2]; PS 300 U/kg iv, 15 min, Mean±SD): 550 ± 90 ng/mL; plasma concentration ([2]; PS 300 U/kg iv, 20 min, Mean±SD column (one rat)): 430 ng/mL; plasma concentration ([2]; PS 300 U/kg iv, 20 min, rat 6#): 430 ng/mL; AUC [2, 3]: 35.86 min･µg･mL^-1; CL [2, 3]: 53.74 mL･min^-1･kg^-1; Cmax [2, 3]: 12.10 µg･mL^-1; MRT [2, 3]: 2.51 min; T1/2 [2, 3]: 1.72 min; Vd [2, 3]: 134 mL･kg^-1; AUC [2, 4]: 42.97 min･µg･mL^-1; CL [2, 4]: 41.70 mL･min^-1･kg^-1; Cmax [2, 4]: 15.14 µg･mL^-1; MRT [2, 4]: 3.20 min; T1/2 [2, 4]: 7.06 min; Vd [2, 4]: 425 mL･kg^-1; AUC [2, 5]: 17.83 min･µg･mL^-1; Cmax [2, 5]: 11.17 µg･mL^-1; MRT [2, 5]: 1.12 min; AUC [2, 6]: 45.62 min･µg･mL^-1; CL [2, 6]: 39.21 mL･min^-1･kg^-1; Cmax [2, 6]: 14.12 µg･mL^-1; MRT [2, 6]: 4.40 min; T1/2 [2, 6]: 8.65 min; Vd [2, 6]: 489 mL･kg^-1; AUC [2, 7]: 29.16 min･µg･mL^-1; CL [2, 7]: 66.07 mL･min^-1･kg^-1; Cmax [2, 7]: 12.55 µg･mL^-1; MRT [2, 7]: 2.12 min; T1/2 [2, 7]: 1.64 min; Vd [2, 7]: 156 mL･kg^-1; AUC [2, 8]: 33.06 min･µg･mL^-1; CL [2, 8]: 55.19 mL･min^-1･kg^-1; Cmax [2, 8]: 12.70 µg･mL^-1; MRT [2, 8]: 2.49 min; T1/2 [2, 8]: 2.18 min; Vd [2, 8]: 173 mL･kg^-1; AUC [2, 9]: 28.68 min･µg･mL^-1; CL [2, 9]: 66.01 mL･min^-1･kg^-1; Cmax [2, 9]: 9.40 µg･mL^-1; MRT [2, 9]: 2.97 min; T1/2 [2, 9]: 2.41 min; Vd [2, 9]: 229 mL･kg^-1; AUC [2, 10]: 18.80 min･µg･mL^-1; CL [2, 10]: 97.21 mL･min^-1･kg^-1; Cmax [2, 10]: 10.34 µg･mL^-1; MRT [2, 10]: 1.46 min; T1/2 [2, 10]: 1.20 min; Vd [2, 10]: 168 mL･kg^-1; Cmax ([2]; PS 300 U·kg^-1 single iv tail vein, Wistar rats, Total (male and female), at 1 min, mean ± SD, n = 6, rats 3# and 14# excluded): 12.67 ± 1.96 µg/mL; AUC [2, 11]: 35.89 ± 7.07 µg·min/mL; CL [2, 11]: 53.65 ± 11.49 mL/min/kg; MRT [2, 11]: 2.95 ± 0.81 min; T1/2 [2, 11]: 3.94 ± 3.08 min; Vd [2, 11]: 268 ± 151 mL/kg; AUC [2, 12]: 30.30 ± 2.40 µg·min/mL; CL [2, 12]: 62.42 ± 6.26 mL/min/kg; Cmax [2, 12]: 11.55 ± 1.86 µg/mL; MRT [2, 12]: 2.53 ± 0.43 min; T1/2 [2, 12]: 2.08 ± 0.40 min; Vd [2, 12]: 186 ± 38 mL/kg; AUC [2, 13]: 41.48 ± 5.05 µg·min/mL; CL [2, 13]: 44.88 ± 7.77 mL/min/kg; Cmax [2, 13]: 13.79 ± 1.55 µg/mL; MRT [2, 13]: 3.37 ± 0.96 min; T1/2 [2, 13]: 5.81 ± 3.63 min; Vd [2, 13]: 349 ± 189 mL/kg
